Data: PMC6658616, “Novel Peptide Conjugates of Modified Oligonucleotides for Inhibition of Bacterial RNase P” (Frontiers in Pharmacology, 2019)

Tests used:
E. coli = assay: Conjugate penetration into bacterial cells, flow cytometry; assay type: cell-based, Escherichia coli; conditions: 1 µM conjugate in LB medium, 1 h at 37°C, 3'-fluorescein label, mean ± SD from four independent experiments
A. baumannii = assay: as above; assay type: cell-based, Acinetobacter baumannii; conditions: 1 µM conjugate in LB medium, 1 h at 37°C, 3'-fluorescein label, mean ± SD from four independent experiments

Substance	Level of penetration, %, E.coli (E. coli)	Level of penetration, %, A. baumannii (A. baumannii)	Level of penetration, %, A. baumannii (A. baumannii; listed as 5’-Pept2 -pgd-inh3- Flu)
5’-Pept3-d(CAAGCAGCxCxTxAxCxCxC)–Flu-3’ [5'-Pept3-pgd-inh3-Flu, 5’-Pept3 conjugate of pgd-inh3 with 3’-fluorescein]	7,0±1%	1,7±0,3%	–
5’-Pept2-d(CAAGCAGCxCxTxAxCxCxC)–Flu-3’ [5'-Pept2-pgd-inh3-Flu, 5’-Pept2 conjugate of pgd-inh3 with 3’-fluorescein]	5,3±0,3%	6,5±0,5%	6.5%
5’-Pept4-d(CAAGCAGCxCxTxAxCxCxC)–Flu-3’ [5'-Pept4-pgd-inh3-Flu, 5’-Pept4 conjugate of pgd-inh3 with 3’-fluorescein]	6,4±0,2%	2,0±0,3%	–
5’-Pept1-d(CAAGCAGCxCxTxAxCxCxC)–Flu-3’ [5'-Pept1-pgd-inh3-Flu, 5’-Pept1 conjugate of pgd-inh3 with 3’-fluorescein]	4,1±0,1%	1,8±0,2%	–
